Results on four molecules are retold here after publication PMC5300155, “Biochemical and biophysical investigations of the interaction between human glucokinase and pro-apoptotic BAD” (PLoS ONE, 2017).

Primed or numbered codes have the meaning given here. No end group written: not given here. FITC′ = fluorescein isothiocyanate label

The term stoichiometry N denotes a count of units in the complex or per binding partner. In general, IC50 refers to the midpoint of a concentration-inhibition curve. What is called Kd is the free concentration of one partner at which half of the binding sites on the other are occupied at equilibrium, for simple one-to-one binding.

In series [1] the target is recombinant human pancreatic glucokinase (human) (UniProt P35557).
Series [2] concerns the target recombinant human BAD-GST fusion polypeptide (human) (UniProt Q92934). Nature of the series: SEC; HiPrep 16/60 Sephacryl S-200 HR, calibrated; single proteins or equimolar mixtures incubated on ice 30 min; BAD buffer pH 8.5; 4°C. On the technique in general: Size exclusion chromatography separates by hydrodynamic size, large species first.
The target in series [3] is recombinant human Bcl-xL, Δ45–84, Δ210–233 variant (human) (UniProt Q07817). The experiment in a line: fluorescence polarisation; competition: 200 nM f-BH3, 50 nM Bcl-xL, BAD forms varied 0–50 μM; room temperature. In general terms: Fluorescence polarisation rises when a labelled molecule tumbles more slowly, as on binding a larger partner.
Series [4] deals with recombinant human BAD-GST fusion polypeptide (human) (UniProt Q92934). The experiment in a line: AUC; sedimentation velocity; single proteins or 1:1 molar mixtures incubated on ice 30 min; BAD buffer pH 8.5; 20°C.
For another series, the target named is GST. The series is described as above.
A further series concerns the target T1, Bcl-xL (Homo sapiens, UniProt Q07817, DEL45-84).
T1 construct: made in house
Nature of the series: Fluorescence polarization competition with f-BH3 for binding to Bcl-xL. As for the experimental part:
Exon 1 of human bcl-xl lacking the C-terminal residues 189–233 was obtained from Stanley Korsmeyer (Addgene plasmid 8755) and site-directed mutagenesis was performed to create the Δ45–84, Δ210–233 variant. Bcl-xL was expressed and purified using a modified procedure described previously. Briefly, Bcl-xL was purified by nickel affinity chromatography and dialyzed against potassium phosphate buffer (20 mM, pH 7.4) containing NaCl (50 mM), EDTA (1 mM), and DTT (10 mM). Protein was applied to a Superdex 200 10/30 HR size-exclusion column, at a flow rate of 0.02 mL/min, to remove aggregate and oligomers prior to binding assays.
A fluorescence polarization assay developed by Zhang, et al. was utilized to measure interactions between BAD and its binding partners. Two 21-residue FITC-labeled peptides containing the BH3 domain of BAD were synthesized and purified to >95% by Peptide2.0 (f-BH3 = NLWAAQRYGRELRRMSDK(FITC)FVD; f-pBH3 = NLWAAQRYGRELRRM(p)SDK(FITC) FVD). Polarization was measured at room temperature with an excitation wavelength of 485 nm and an emission wavelength of 530 nm using a SpectraMax M5 microplate reader (Molecular Devices). Experiments to measure binding constants of the fluorescent peptides to Bcl-xL or GCK were performed in black 96-well plates. Each well contained 15 nM peptide, 60 μL BAD buffer (0.1 M Tris, 0.1 M KCl, 0.5 M arginine, 2.5 mM CHAPS, 5 mM TCEP, 10% glycerol, pH 8.5) and variable concentrations of Bcl-xL (0–2.25 μM) or GCK (0–400 μM) in assay buffer (20 mM phosphate buffer, pH 7.4, 1 mM EDTA, 50 mM NaCl, 10 mM DTT) in a final volume of 120 μL. High GCK concentrations were chosen in an effort to detect a signal indicating a binding event. Assays containing GCK also contained 250 mM glucose. […] Plates were incubated at room temperature in the dark for 15 min prior to polarization measurements.

The nature of series [5]: Isoelectric focusing of phosphorylated BAD-GST. The class given is physicochemical. As to conditions: IEF, IPG strips pH 4–7; four distinct populations. The procedure:
Recombinant BAD-GST was phosphorylated with PKAc after refolding. 1 unit PKAc was added to 10 units BAD-GST and the reaction was dialyzed against BAD refolding buffer (0.1 M Tris, 0.1 M KCl, 0.2 M arginine, 2.5 mM CHAPS, 5 mM DTT, 10% glycerol, pH 8.5) containing ATP (3 mM) and MgCl2 (20 mM). Reactions were carried out at 4°C overnight. PKAc and excess ATP were removed from BAD-GST via glutathione-affinity chromatography (GSTrap, GE Healthcare). The extent of phosphorylation was established via mass spectrometry and 2D-IEF-SDS-PAGE using ReadyStrip IPG strips (Bio-Rad) with a pH range of 4–7. pET28badgst was subjected to site-directed mutagenesis to remove sites of phosphorylation (Ser-to-Ala) or to incorporate phosphorylation mimics (Ser-to-Asp) using the QuikChange™ Site-directed mutagenesis kit (Stratagene).

The target of series [6] is T2, human pancreatic GCK (Homo sapiens, UniProt P35557).
T2 construct: hexahistidine (N); made in house; host or cells: glucokinase auxotroph BM5340(DE3)
T2 sequence (P35557 1-465): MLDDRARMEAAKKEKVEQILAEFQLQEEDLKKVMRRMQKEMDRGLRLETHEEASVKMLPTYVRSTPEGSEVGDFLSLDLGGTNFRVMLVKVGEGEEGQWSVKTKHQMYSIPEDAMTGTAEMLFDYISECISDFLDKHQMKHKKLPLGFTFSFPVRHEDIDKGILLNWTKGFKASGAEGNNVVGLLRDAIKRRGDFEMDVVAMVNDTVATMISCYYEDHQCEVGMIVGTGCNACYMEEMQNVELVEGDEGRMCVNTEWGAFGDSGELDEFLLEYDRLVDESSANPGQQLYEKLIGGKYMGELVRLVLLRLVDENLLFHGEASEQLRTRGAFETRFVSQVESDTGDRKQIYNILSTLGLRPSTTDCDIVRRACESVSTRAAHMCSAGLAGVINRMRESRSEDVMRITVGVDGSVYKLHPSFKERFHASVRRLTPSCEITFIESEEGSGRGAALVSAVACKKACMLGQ
Nature of the series: Analytical ultracentrifugation sedimentation velocity of equimolar mixtures with GCK. As to conditions: equimolar mixture, BAD buffer pH 8.5, 20°C, 50,000 x g. It counts as binding. As for the experimental part: (§1) Sedimentation velocity experiments were conducted with an Optima XLI Ultracentrifuge (Beckman Coulter) using a four-hole rotor with three 420 μL samples in standard double-sector Epon centerpieces equipped with sapphire windows. Absorbance and interference data were collected simultaneously. Size-exclusion purified proteins were concentrated to OD280 nm = 0.3–1.0 prior to centrifugation. For complex formation, proteins were mixed in a 1:1 molar ratio in BAD buffer (0.1 M Tris, 0.1 M KCl, 0.5 M arginine, 2.5 mM CHAPS, 5 mM TCEP, 10% glycerol, pH 8.5) and incubated on ice 30 min prior to the start of the experiment. Experiments were carried out at 20°C and 50,000 x g. Data were analyzed with Ultrascan III software using a minimum of 70 scans per sample for analysis. Van Holde-Weischet analysis was performed to obtain S20,W values.

Series [7] in a line: Circular dichroism spectroscopy (secondary structure). It counts as physicochemical. As to conditions: relative to (unmodified) BAD-GST, 25°C, pH 7.8. As for the experimental part: Proteins were dialyzed overnight into potassium phosphate buffer (50 mM, pH 7.8) containing KCl (50 mM), glycerol (5% v/v), and TCEP (4 mM). CD spectra were recorded on an AVIV 202 CD spectrometer at 25°C with protein concentrations ranging from 3–15 μM. Spectra were recorded from 200–260 nm in 10 mm pathlength cuvettes using a 1 nm step resolution and 3 s integration time. Three scans were recorded per sample, averaged, and baseline subtracted with appropriate buffer controls. CD signals were converted to molar ellipticity and deconvoluted using CDPro Software.
(In general: Circular dichroism is the unequal absorption of left and right circularly polarised light.)

Series [8] addresses T2, human pancreatic GCK. Nature of the series: GCK activity, G6PDH-linked assay (lab's routine assay, 25°C). It counts as biochemical. As for the experimental part: Recombinant human pancreatic GCK containing an N-terminal hexahistidine tag was produced in the glucokinase auxotroph BM5340(DE3) and purified using a previously described procedure. TEV protease was expressed as a GST-fusion protein from a pGEX plasmid encoding the S219V variant, provided by David Waugh (Addgene plasmid 8827). Expression was induced with IPTG (1 mM) for 4 h at 30°C. Cell pellets were resuspended in Tris buffer (50 mM, pH 8.0) containing NaCl (100 mM), glycerol (10% v/v), benzamidine (1 mM) and dithiothreitol (10 mM) and lysed via French Press. Polyethyleneimine (0.1%) was added to the lysate and protein was purified on a glutathione-affinity column (GSTrap, GE Sciences). TEV protease was flash frozen and stored at -80°C for up to 1 month.
GCK activity was assayed using a glucose 6-phosphate dehydrogenase (G6PDH)-linked assay at 25°C. 50 nM GCK was assayed in buffer containing HEPES (100 mM, pH 7.4), KCl (50 mM), NADP^+ (0.5 mM), DTT (10 mM), MgCl2 (7 mM), G6PDH (1.5 U) and glucose (0–100 mM) in a total volume of […]. Addition of ATP (6 mM) initiated the reaction. Production of NADPH was measured at 340 nm. To determine the effect of BAD on GCK activity, 5 μL of BAD or buffer control was added to the reaction in a final volume of 100 μL. K0.5 values were determined by fitting to the Hill equation. The effect of BAD on GCK activity is reported as the percent rate increase at individual glucose concentrations, calculated as the average of a minimum of four rates of BAD-containing assays divided by the average of rates of BAD buffer-containing assays. The results represent the average of at least three independent preparations of pure BAD.

A short description of series [9]: Analytical ultracentrifugation sedimentation velocity (oligomerization, shape). It counts as physicochemical. As to conditions: sedimentation velocity, 20°C, 50,000 x g; unity = compact sphere. As for the experimental part:
as §1

The target in series [10] is T3, recombinant human Bcl-xL, Δ45–84, Δ210–233 variant (human, UniProt Q07817-1 1-209, Δ45–84).
T3 construct: Bcl-xL, human; loop 45-84 deleted and C-terminal residues 210-233 lacking; also called soluble, recombinant Bcl-xL
T3 sequence (Q07817 other isoform, or with tags, fused parts or gaps Δ45–84 | Δ45–84 | mutant): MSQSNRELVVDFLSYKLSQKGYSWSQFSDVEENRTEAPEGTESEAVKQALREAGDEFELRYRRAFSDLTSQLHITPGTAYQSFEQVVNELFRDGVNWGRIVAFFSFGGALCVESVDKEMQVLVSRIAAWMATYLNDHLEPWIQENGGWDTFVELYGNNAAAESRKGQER
The experiment in a line: fluorescence polarisation; 15 nM FITC peptide, Bcl-xL varied 0–2.25 μM; BAD buffer mixed with phosphate assay buffer pH 7.4; room temperature. As to conditions: both partners purified.

T1 sequence (Q07817 with tags, fused parts or gaps DEL45-84): as the sequence (Q07817 other isoform, or with tags, fused parts or gaps Δ45–84 | Δ45–84 | mutant) above

In the case of “recombinant human BAD-GST fusion polypeptide (from UniProt Q92934 1-168) (natural protein)”, the percent increase in GCK rate, glucose 0.5–1.0 mM, largest at 0.8 mM glucose with BAD-GST ≥ 2 μM in series [1] was 10%. The stoichiometry N in series [2] and in series [4] was 2 throughout. Further, in [3], the IC50 was 130 nM.
As to GST (natural protein), in the series with GST, the stoichiometry N was 2.

B1: phosphorylated BAD-GST: BAD-GST phosphorylated in vitro with PKAc at S75, S99, S118 (protein)
chain: MFQIPEFEPSEQEDSSSAERGLGPSPAGDGPSGSGKHHRQAPGLLWDASHQQEQPTSSSHHGGAGAVEIRSRHSSYPAGTEDDEGMGEEPSPFRGRSRSAPPNLWAAQRYGRELRRMSDEFVDSFKKGLPRPKSAGTATQMRQSSSWTRVFQSWWDRNLGRGSSAPSQ
modifications: phosphoserine at 75, 99 and 118 (all three sites found by mass spectrometry; four populations by isoelectric focusing); left off: His6, N-terminal, state not stated | GST, C-terminal, kept
notes: BAD-GST phosphorylated in vitro with PKAc at S75, S99, S118
As for B1, the IC50 with Bcl-xL (200 nM f-BH3, 50 nM Bcl-xL, competitor 0–50 μM, room temperature, 15 min) was not below 1600 nM. Further, the “Competition with f-BH3 binding to Bcl-xL (in words)” value with Bcl-xL (200 nM f-BH3, 50 nM Bcl-xL, GST up to 10 μM, BAD-GST phosphorylated by PKA) is on record as “abrogrates the protein’s ability to compete with f-BH3”. Further, the “Ability to interact with Bcl-xL (in words)” value in the series with Bcl-xL (ITC and fluorescence polarization assays) is on record as “significantly impaired in their ability to interact with Bcl-xL”. Also, in [5], the pI values is 4–7. Further, the “Complex with GCK by analytical ultracentrifugation” value with human pancreatic GCK [6] was “no evidence of a higher molecular weight complex”. Besides, the “CD comparison (in words)” value in [7] is recorded as “a higher degree of α-helical content compared to unmodified BAD-GST”. Besides, in the series with human pancreatic GCK [8] (1.0 mM glucose, BAD-GST phosphorylated by PKA), the “Increase in GCK activity over unmodified BAD-GST” value is 5%. The “Hill coefficient H of GCK in presence of pBAD-GST” value with human pancreatic GCK [8] (Fig 6A, GCK alone: H = 1.7) was determined as 1.6. Moreover, the “K0.5 (glucose) of GCK in presence of pBAD-GST” value in the series with human pancreatic GCK [8] (Fig 6A, GCK alone: K0.5 = 8.6 mM, Hill equation fit) is on record as 8.8 mM. Also, the “kcat of GCK in presence of pBAD-GST” value with human pancreatic GCK [8] (Fig 6A, GCK alone: kcat = 38.1 s^-1) was determined as 38.4 s^-1. The “Difference in effect on GCK activity, phosphorylated versus unmodified BAD-GST” value with human pancreatic GCK [8] (all glucose concentrations other than 1.0 mM) is listed as “no statistical difference”. In the series with human pancreatic GCK [8] (glucose below K0.5, phosphorylated BAD > 2 μM), the “Maximum increase in GCK activity” value was found to be 15%. In [9], the “Frictional ratio f/f0” value was 3.1.

B2: FITC-labeled 21-residue peptide containing the BH3 domain of BAD (peptide)
peptide: NLWAAQRYGRELRRMSDK(FITC′)FVD
notes: BH3 domain of BAD, human; also called f-BH3; fluorescent BH3 peptide; source: synthetic peptide (Peptide2.0, >95%)
As for B2, in [10], the Kd came to 180 nM.
